Positions count from the first letter of the chain named.
Experiments:
human CCR8 [1] = target: T1, human CCR8 (human, UniProt P51685 1-355); assay: flow cytometry on CHO-hCCR8 cells
T1 construct: Full-length human CCR8 stably expressed on CHO or HEK293 cells; also endogenous on HuT78 cells in one ADCC assay; also called hCCR8; CHO-hCCR8
Experimental: (§1) 5×10⁴ CHO-hCCR8 or CHO-cynoCCR8 cells were added per well in a 96-well U-shaped plate and centrifuged to discard the supernatant. 100 μL of a gradiently diluted anti-CCR8 chimeric antibody was added per well and the mixture was incubated on ice for 60 minutes. After the unbound primary antibody was washed away, 50 μL, of a secondary antibody AlexaFluro647 anti-human IgG (Jackson Immuno Research #109-606-170) was added per well and the mixture was incubated on ice for 30 minutes. After the washing, 50 μL of 5 μg/mL of a Pi/BSA solution was added to each well and the mixture was incubated on ice for 5 minutes. Then excess secondary antibody was washed away with 0.5% BSA, the cells were resuspended by adding a PBS solution, and binding of the antibody to the cells was detected using a flow cytometer (BD Celesta). The fluorescence value of a PI-negative cell population was analyzed. Cell-binding curves were fitted by Graphpad Prism 7.

cynomolgus monkey CCR8 [2] = target: T2, cynomolgus monkey CCR8 (cynomolgus monkey, UniProt O97665 1-356 (rhesus entry)); assay: flow cytometry on CHO-cynoCCR8 cells
T2 construct: Full-length, stably expressed on CHO cells; also called cynoCCR8; CHO-cynoCCR8
T2 sequence (O97665 other isoform, or with tags, fused parts or gaps): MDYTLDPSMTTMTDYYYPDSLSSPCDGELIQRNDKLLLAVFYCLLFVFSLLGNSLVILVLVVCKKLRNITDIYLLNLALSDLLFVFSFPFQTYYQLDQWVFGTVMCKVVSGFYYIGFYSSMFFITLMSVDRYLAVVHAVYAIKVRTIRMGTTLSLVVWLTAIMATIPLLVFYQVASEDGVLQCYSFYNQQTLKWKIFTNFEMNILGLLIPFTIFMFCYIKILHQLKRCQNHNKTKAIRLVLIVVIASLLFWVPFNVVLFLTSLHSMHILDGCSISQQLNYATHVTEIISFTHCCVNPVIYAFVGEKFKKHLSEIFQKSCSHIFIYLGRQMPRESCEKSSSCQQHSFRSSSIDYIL
Experimental: as §1

human CCR8 [3] = target: T1, human CCR8; assay: cell-based or functional assay
human CCR4 = target: T3, human CCR4 (human, UniProt P51679 1-360); assay: flow cytometry of purified Fab on cells stably expressing human CCR4
T3 construct: also called hCCR4; human CCR4+ cells
T3 sequence: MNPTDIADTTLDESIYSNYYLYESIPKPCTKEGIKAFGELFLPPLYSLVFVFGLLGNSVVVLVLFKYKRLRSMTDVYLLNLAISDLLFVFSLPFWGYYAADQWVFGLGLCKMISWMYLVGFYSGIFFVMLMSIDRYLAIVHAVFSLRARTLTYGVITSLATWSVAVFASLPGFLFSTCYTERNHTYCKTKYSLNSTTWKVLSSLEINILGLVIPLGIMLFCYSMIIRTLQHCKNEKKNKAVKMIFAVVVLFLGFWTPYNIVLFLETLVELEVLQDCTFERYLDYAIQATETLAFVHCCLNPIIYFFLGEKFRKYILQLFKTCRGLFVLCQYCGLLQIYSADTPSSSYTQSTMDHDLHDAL
Experimental: (§2) The positive clones obtained in example 1 were re-induced to express and purified to obtain a Fab antibody. The binding to cells stably expressing human CCR8, cynomolgus monkey CCR8 and human CCR4 was tested respectively, 5×10⁴ test cells were added to each well of a 96-well U-shaped plate and centrifuged to discard the supernatant, 100 μL/well of the purified Fab antibody was added and the mixture was incubated on ice for 60 minutes. After washing away the unbound primary antibody, 50 μL of a secondary antibody solution (Anti-human IgG, F(ab′)2-AF647, Jackson Immuno Research) was added to each well and the mixture was incubated on ice for 30 minutes. After washing, 50 μL of a PI/BSA solution at 5 μg/mL was added to each well and the mixture was incubated on ice for 5 minutes. Then excess secondary antibody was washed away with 0.5% BSA, the cells were resuspended by adding a PBS solution, and binding of the antibody to the cells was detected using a flow cytometer (Intellicyte iQue).

cynomolgus monkey CCR8 [4] = target: T2, cynomolgus monkey CCR8; assay: flow cytometry of purified Fab on cells stably expressing cynomolgus monkey CCR8
Experimental: as §2

cynomolgus monkey CCR8 [5] = target: T2, cynomolgus monkey CCR8; assay: flow cytometry on CHO-cynoCCR8 cells, parental chimeric antibody
Experimental: as §1

human CCR8 [6] = target: T1, human CCR8; assay: flow cytometry on CHO-hCCR8 cells, parental chimeric antibody
Experimental: as §1

human CCR8 [7] = target: T1, human CCR8; assay: flow cytometry, chimeric IgG on CHO-hCCR8 cells
Experimental: (§3) 5×10⁴ CHO-hCCR8 or CHO-cynoCCR8 cells were added per well in a 96-well U-shaped plate and centrifuged to discard the supernatant, 100 μL of a gradiently diluted anti-CCR8 chimeric antibody or anti-KLH isotype control antibody was added per well and the mixture was incubated on ice for 60 minutes. After the unbound primary antibody was washed away, 50 μL of a secondary antibody AlexaFluro647 anti-human IgG (Jackson Immuno Research #109-606-170) was added per well and the mixture was incubated on ice for 30 minutes. After the washing, 50 μL of 5 μg/mL of a PI/BSA solution was added to each well and the mixture was incubated on ice for 5 minutes. Then excess secondary antibody was washed away with 0.5% BSA, the cells were resuspended by adding a PBS solution, and binding of the antibody to the cells was detected using a flow cytometer (Intellicyte iQue). The fluorescence value of a Pi-negative cell population was analyzed. Cell-binding curves were fitted by Graphpad Prism 7 (FIG. 2). The chimeric antibodies of 87D8, 102H5, 109F6, 110G2, 113B3, 139A9, 144D2, etc. all bound with high affinities to human CCR8+ cells CHO-hCCR8 and cynomolgus monkey CCR8+ cells CHO-cynoCCR8.

human CCR8 [8] = target: T1, human CCR8; assay: cell-based or functional assay; remark: listed apart in the source
cynomolgus monkey CCR8 [9] = target: T2, cynomolgus monkey CCR8; assay: flow cytometry, chimeric IgG on CHO-cynoCCR8 cells
Experimental: as §3

T1 sequence (P51685 whole entry): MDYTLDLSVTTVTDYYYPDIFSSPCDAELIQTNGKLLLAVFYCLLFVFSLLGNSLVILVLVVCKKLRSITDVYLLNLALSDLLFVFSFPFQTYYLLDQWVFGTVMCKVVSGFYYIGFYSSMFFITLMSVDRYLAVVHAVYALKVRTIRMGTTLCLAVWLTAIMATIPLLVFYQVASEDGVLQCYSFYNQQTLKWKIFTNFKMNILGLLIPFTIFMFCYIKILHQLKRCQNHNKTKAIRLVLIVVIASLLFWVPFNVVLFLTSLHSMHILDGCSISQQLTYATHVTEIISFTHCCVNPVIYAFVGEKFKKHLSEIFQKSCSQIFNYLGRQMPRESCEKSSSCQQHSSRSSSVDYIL

B1: h87D8 H1K1 (antibody, human IgG1, V domains shown)
VH: EVQLVESGGGLVQPGGSLRLSCAASGFTFNTYAMNWVRQAPGKGLEWVARIRSKSNNYATYYADSVKGRFTISRDDSQSSLYLQMNSLRAEDTAVYYCVRGKEAGAYYAMDYWGQGTLVTVSS
VL: DIVMTQSPLSLPVTPGEPASISCRSSKSLLHSNGNTYLYWFLQKPGQSPQLLIYRMSNLASGVPDRFSGSGSGTDFTLKISRVEAEDVGVYYCMQHLEYPLTFGQGTKLEIK
notes: Humanized; also called h87D8 VHv1+h87D8 VKv1
Human CCR8 [1]
  EC50: 0.53 nM
Cynomolgus monkey CCR8 [2]
  EC50: 1.19 nM
Human CCR8 [3]
  ADCC half-maximal effective concentration (EC50), NK92-CD16A effectors, HEK293-hCCR8 targets: 0.01 nM

B2: h144D2 H1K1 (antibody, human IgG1, V domains shown)
VH: B1 VH with T31A, Y32F
VL: B1 VL
notes: Humanized; also called h144D2 VHv1+h87D8 VKv1
Human CCR8 [1]
  EC50: 0.89 nM
Cynomolgus monkey CCR8 [2]
  EC50: 1.16 nM
Human CCR8 [3]
  ADCC half-maximal effective concentration (EC50), NK92-CD16A effectors, HEK293-hCCR8 targets: 0.02 nM

B3: 29A8 Fab antibody (Fab, V domains shown)
VH: EVQLVESGGGLVQPKGSLKLSCAASGFTFNAFAMNWVRQAPGKGLEWVARIRSKSNNYATYYADSVIDRFTISRDDSQSMLYLQMNNLKTEDTAMYYCVRGKEAGAYYAMDYWGQGTSVTVSS
VL: DIVMTQAAPSVPVTPGESVSISCRSSKSLLHSNGNTYLYWFLQRPGQSPQLLIYRMSNLASGVPDRFSGSGSGTAFTLRISKVEAEDVGVYYCMQHLEYPFTFGGGTKLEIK
notes: detected with anti-human IgG F(ab')2; also called clone 29A8
Human CCR4
  binding result: no binding
Cynomolgus monkey CCR8 [4]
  binding result: binds

B4: 144D2 anti-CCR8 chimeric antibody (antibody, V domains shown)
VH: B3 VH
VL: B3 VL with K82R, F101L, G105A
Cynomolgus monkey CCR8 [5]
  EC50: 1.32 nM
Human CCR8 [6]
  EC50: 0.88 nM
Human CCR8 [7]
  EC50: 1.08 nM
Human CCR8 [8]
  ADCC EC50 (nM), NK92-CD16A effectors, HEK293-hCCR8 targets, LDH release: 0.07 nM
Cynomolgus monkey CCR8 [9]
  EC50: 2.75 nM

Source: patent publication US20250215097A1 (BEIJING TIANNUOJIANCHENG PHARMA TECH, published 2025)
